According to patent US20190040130A1 (Alector, published 2019):
Each block holds one binder with its values, some of them ahead of it.

Experiments:
[1] = target: T1, human TREM2/DAP12 fusion protein in BW5147.G.1.4 NFAT-luciferase reporter cells (human, UniProt O43914 41-113, limits assumed); test: cell-based or functional assay
[2] = target: T1, human TREM2/DAP12 fusion protein in …; test: cell-based or functional assay; remark: listed apart in the source
[3] = target: T2, human TREM2 expressed on cells (human, UniProt Q9NZC2 19-230); test: FACS, BW cells
T2 construct: also called huT2 BW; cell expressed TREM2
T2 sequence: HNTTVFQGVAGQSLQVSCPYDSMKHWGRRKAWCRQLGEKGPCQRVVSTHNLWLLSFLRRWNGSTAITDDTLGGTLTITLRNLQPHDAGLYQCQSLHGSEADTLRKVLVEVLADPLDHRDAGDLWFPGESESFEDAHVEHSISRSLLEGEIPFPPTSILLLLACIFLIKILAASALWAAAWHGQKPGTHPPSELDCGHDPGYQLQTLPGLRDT
Protocol: To examine cell binding of anti-TREM2 antibodies, recombinant, human TREM2-expressing BW5147. G.1.4 cells (ATCC® TIB48™) were established by stably expressing either mouse TREM2 or human TREM2 together with Dap12 using viral infection. Cells were harvested by scraping, washed in PBS, counted and plated on 96-well U bottom plates at 1×10⁵ cells/well. The plates were spun at 1,400 rpm for 3 minutes and primary anti-TREM2 or control antibodies were added in FACS buffer (PBS+2% FBS) and incubated on ice for one hour. Cells were subsequently centrifuged as before and washed thrice with FACS buffer. Cells were then incubated with anti-human PE conjugated secondary antibody (BD Biosciences) in FACS buffer for 30 minutes on ice. Cells were again washed thrice with FACS buffer and analyzed on a BD FACS Canto. Binding was measured as mean fluorescence intensity in the […].

[4] = target: T1, human TREM2/DAP12 fusion protein in …; test: cell-based or functional assay; remark: listed apart in the source
[5] = target: T2, human TREM2 expressed on cells; test: cell-based or functional assay
[6] = target: T1, human TREM2/DAP12 fusion protein in …; test: cell-based or functional assay; remark: listed apart in the source
[7] = target: T1, human TREM2/DAP12 fusion protein in …; test: cell-based or functional assay; remark: listed apart in the source
[8] = target: T1, human TREM2/DAP12 fusion protein in …; test: cell-based or functional assay; remark: listed apart in the source
[9] = target: T1, human TREM2/DAP12 fusion protein in …; test: cell-based or functional assay; remark: listed apart in the source
[10] = target: T1, human TREM2/DAP12 fusion protein in …; test: cell-based or functional assay; remark: listed apart in the source

- EC50 (read off the curve); NFAT:luciferase luminescence, BWZ reporter cells co-cultured 1:1 with THP-1 cells, 6 h [2]: ~0.3 µg/mL
B2: AL2p huIgG1 E430G (antibody, V domains shown)
VH: QVQLQQSGPELVKPGASLKISCKASGYAFSSSWMNWVKQRPGKGLEWIGRIYPGDGDTNYNGEFRVRATLTADTSSTTAYMQLSSLTSEDSAVYFCARLLRNQPGESYAMDYWGQGASVTVSS
VL: DVVMTQTPLSLPVSLGDQASISCRSSQSLVHSNGYTYLHWYLQKPGQSPKLLIYKVSNRFSGVPDRFSGSGSGTDFTLKISRVEADDLGVYFCSQSTRVPYTFGGGTKLEIK

- Cell binding (FOB) [3]: 91 fold over background
B6: AL2p-h43 (antibody, IgG1, V domains shown)
VH: QVQLVQSGAEVKKPGASLKVSCKASGYAFSSSWMNWVRQAPGQRLEWIGRIYPGDGDTNYNGEFRVRATLTADTSASTAYMELSSLRSEDTAVYFCARLLRNQPGESYAMDYWGQGTLVTVSS
VL: DVVMTQTPLSLSVTPGQPASISCRSSQSLVHSNGYTYLHWYLQKPGQSPQLLIYKVSNRFSGVPDRFSGSGSGTDFTLKISRVEAEDVGVYYCSQSTRVPYTFGQGTKLEIK
notes: IgG1; Fab in monovalent BLI

- Cell binding (FOB) [3]: 126 fold over background
B7: AL2p-h90 (antibody, IgG1, V domains shown)
VH: QVQLVQSGAEVKKPGASVKVSCKASGYAFSSSWMNWVRQAPGQRLEWIGRIYPGDGDTNYAQKFQGRVTITADTSASTAYMELSSLRSEDTAVYYCARLLRNQPGESYAMDYWGQGTLVTVSS
VL: DVQMTQSPSSLSASVGDRVTITCRSSQSLVHSNGYTYLHWYQQKPGKSPKLLIYKVSNRFSGVPSRFSGSGSGTDFTLTISSLQPEDFATYYCSQSTRVPYTFGGGTKVEIK
notes: IgG1; Fab in monovalent BLI

- Luciferase activation plate bound 33 nM IgG [8]: 22.1 FOC
B9: AL2p-14 (antibody, IgG1, V domains shown)
VH: QVQLVQSGAEVKKPGSSVKVSCKASGYAFSSHWMNWVRQAPGQGLEWMGRIYPGDGDTNYAQKFQGRVTITADESTSTAYMELSSLRSEDTAVYYCARLLRNQPGESYAMDYWGQGTLVTVSS
VL: GVVMTQTPLSLSVTPGQPASISCRSSRSLVHSNGYTYLHWYLQKPGQSPQLLIYKVSNRFSGVPDRFSGSGSGTDFTLKISRVEAEDVGVYYCSQSTRVPYTFGQGTKLEIK

- Soluble luciferase activation at 10 µg/ml [9]: 6.52 fold over control
- Cell binding (FOB) [3]: 86 fold over background
B10: AL2p-h76 (antibody, IgG1, V domains shown)
VH: QVQLVQSGAEVKKPGASVKVSCKASGYAFSSSWMNWVRQAPGQRLEWIGRIYPGDGDTNYAQKFQGRATITADTSASTAYMELSSLRSEDTAVYFCARLLRNQPGESYAMDYWGQGTLVTVSS
VL: DVVMTQSPDSLAVSLGERATINCRSSQSLVHSNGYTYLHWYQQKPGQSPKLLIYKVSNRFSGVPDRFSGSGSGTDFTLTISSLQAEDVAVYYCSQSTRVPYTFGGGTKVEIK
notes: IgG1; Fab in monovalent BLI

- EC50 (read off the curve); NFAT:luciferase luminescence, BW reporter cells, soluble IgG [4]: ~2 µg/mL
B11: AL2p-59 (antibody, V domains shown)
VH: QVQLVQSGAEVKKPGSSVKVSCKASGYAFSSHWMNWVRQAPGQGLEWMGRIYPGEGQTNYAQKRQGRVTITADESTSTAYMELSSLRSEDTAVYYCARLLRNQPGESYAMDYWGQGTLVTVSS
VL: GVVMTQTPLSLSVTPGQPASISCRTSQSLVHSNQYTYLHWYLQKPGQSPQLLIYKVSNRVSGVPDRFSGSGSGTDFTLKISRVEAEDVGVYYCSQSTRVPYTFGQGTKLEIK

- plate bound signal activation, fold over AL2p [10]: 10 fold
B12: AL2p-58 huIgG1 PSEG (antibody)
heavy: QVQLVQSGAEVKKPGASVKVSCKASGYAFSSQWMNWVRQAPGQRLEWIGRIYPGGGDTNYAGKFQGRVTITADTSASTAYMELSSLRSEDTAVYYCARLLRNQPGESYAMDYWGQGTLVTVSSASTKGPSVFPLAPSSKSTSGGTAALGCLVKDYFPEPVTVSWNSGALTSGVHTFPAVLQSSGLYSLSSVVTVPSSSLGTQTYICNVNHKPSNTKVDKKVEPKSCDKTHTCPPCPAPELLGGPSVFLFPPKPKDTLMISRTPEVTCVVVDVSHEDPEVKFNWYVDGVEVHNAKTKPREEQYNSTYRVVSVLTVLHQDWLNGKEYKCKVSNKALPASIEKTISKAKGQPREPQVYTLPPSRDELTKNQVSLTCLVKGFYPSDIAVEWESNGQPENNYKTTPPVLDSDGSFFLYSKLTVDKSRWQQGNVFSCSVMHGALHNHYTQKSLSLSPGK
light: DVVMTQSPDSLAVSLGERATINCRSSQSLVHSNRYTYLHWYQQKPGQSPKLLIYKVSNRFSGVPDRFSGSGSGTDFTLKISRVEAEDVGVYYCSQSTRVPYTFGQGTKLEIKRTVAAPSVFIFPPSDEQLKSGTASVVCLLNNFYPREAKVQWKVDNALQSGNSQESVTEQDSKDSTYSLSSTLTLSKADYEKHKVYACEVTHQGLSSPVTKSFNRGEC

More lines, now with the values behind:

B1: AL2p (parental mouse anti-TREM2 antibody) (antibody, human IgG1, V domains shown)
VH: QVQLQQSGPELVKPGASLKISCKASGYAFSSSWMNWVKQRPGKGLEWIGRIYPGDGDTNYNGEFRVRATLTADTSSTTAYMQLSSLTSEDSAVYFCARLLRNQPGESYAMDYWGQGASVTVSS
VL: DVVMTQTPLSLPVSLGDQASISCRSSQSLVHSNGYTYLHWYLQKPGQSPKLLIYKVSNRFSGVPDRFSGSGSGTDFTLKISRVEADDLGVYFCSQSTRVPYTFGGGTKLEIK
notes: Mouse variable regions; tested as Fab, as human-mouse chimera (human IgG1 Fc) and as msIgG1; see assay; also called 9F5; 9F5a
- EC50 (read off the curve); NFAT:luciferase luminescence, BWZ reporter cells, soluble antibody, 6 h [1]: ~2 µg/mL
- EC50 (read off the curve); NFAT:luciferase luminescence, BWZ reporter cells co-cultured 1:1 with THP-1 cells, 6 h [2]: ~1 µg/mL
- Cell binding (FOB) [3]: 79 fold over background

B3: AL2p-58 (antibody, V domains shown)
VH: QVQLVQSGAEVKKPGASVKVSCKASGYAFSSQWMNWVRQAPGQRLEWIGRIYPGGGDTNYAGKFQGRVTITADTSASTAYMELSSLRSEDTAVYYCARLLRNQPGESYAMDYWGQGTLVTVSS
VL: DVVMTQSPDSLAVSLGERATINCRSSQSLVHSNRYTYLHWYQQKPGQSPKLLIYKVSNRFSGVPDRFSGSGSGTDFTLKISRVEAEDVGVYYCSQSTRVPYTFGQGTKLEIK
- EC50 (read off the curve); NFAT:luciferase luminescence, BW reporter cells, soluble IgG [4]: ~1 µg/mL

B4: AL2p-60 (antibody, IgG1, V domains shown)
VH: QVQLVQSGAEVKKPGSSVKVSCKASGYAFSSQWMNWVRQAPGQGLEWMGRIYPGGGDTNYARKFQGRVTITADESTSTAYMELSSLRSEDTAVYYCARLLRNQPGESYAMDYWGQGTLVTVSS
VL: GVVMTQTPLSLSVTPGQPASISCRSSQSLVHSNRYTYLHWYLQKPGQSPQLLIYKVSNRRSGVPDRFSGSGSGTDFTLKISRVEAEDVGVYYCSQSTRVPYTFGQGTKLEIK
- viability EC50, dendritic cells D558 [5]: 0.152 nM
- viability EC50, dendritic cells D559 [5]: 0.244 nM
- viability EC50, dendritic cells D560 [5]: 0.178 nM
- viability EC50, macrophages D559 [5]: 0.194 nM
- viability EC50, macrophages D560 [5]: 0.154 nM

B5: AL2p-58 msFc (antibody)
chain 1: QVQLVQSGAEVKKPGASVKVSCKASGYAFSSQWMNWVRQAPGQRLEWIGRIYPGGGDTNYAGKFQGRVTITADTSASTAYMELSSLRSEDTAVYYCARLLRNQPGESYAMDYWGQGTLVTVSS
chain 2: DVVMTQSPDSLAVSLGERATINCRSSQSLVHSNRYTYLHWYQQKPGQSPKLLIYKVSNRFSGVPDRFSGSGSGTDFTLKISRVEAEDVGVYYCSQSTRVPYTFGQGTKLEIK
- EC50 (read off the curve); NFAT:luciferase luminescence, BWZ reporter cells, soluble IgG [6]: ~0.7 µg/mL

B8: AL2p-31 msFc (antibody, V domains shown)
VH: QVQLVQSGAEVKKPGSSVKVSCKASGYAFSSQWMNWVRQAPGQGLEWMGRIYPGGGDTNYARKFQGRVTITADESTSTAYMELSSLRSEDTAVYYCARLLRNQPGESYAMDYWGQGTLVTVSS
VL: GVVMTQTPLSLSVTPGQPASISCRSSQSLVHSNGYTYLHWYLQKPGQSPQLLIYKVSNRRSGVPDRFSGSGSGTDFTLKISRVEAEDVGVYYCSQSTRVPYTFGQGTKLEIK
- EC50 (read off the curve); NFAT:luciferase luminescence, BWZ reporter cells, soluble IgG [6]: ~0.8 µg/mL
- EC50 (read off the curve); NFAT:luciferase luminescence, BWZ reporter cells, plate bound IgG [7]: ~3 µg/mL
